Measurements as given in the DeepSol protein solubility set.

Test: soluble on expression in E. coli; label from the status in PepcDB or PDB records
For “MLNNKRLFTSESVTEGHPDKIADQVSDAILDAILKDDPNARVACETTVTTGMALIAGEISTTTYVDIPKVVRETIKEIGYTRAKYGYDYETMAILTAIDEQSPDIAQGVDKALEYRDKDSEEEIEATGAGDQGLMFGYATNETETYMPLAIYLSHQLAKRLSDVRKDGTLNYLRPDGKVQVTVEYDENDNPVRIDTIVVSTQHAEDVTLEQIQEDIKAHVIYPTVPENLINEQTKFYINPTGRFVIGGPQGDAGLTGRKIIVDTYGGYARHGGGCFSGKDPTKVDRSAAYAARYVAKNIVAAGLADQCEVQLAYAIGVAEPVSIAIDTFGTGKVSEGQLVEAVRKHFDLRPAGIIKMLDLKQPIYKQTAAYGHFGRTDVLFPWEKLDKVEELKDAVK”, the “soluble on expression in E. coli” value was “not soluble”. In the case of “MDLTLIIDNYDSFVYNIAQIVGELGSYPIVIRNDEISIKGIERIDPDRLIISPGPGTPEKREDIGVSLDVIKYLGKRTPILGVCLGHQAIGYAFGAKIRRARKVFHGKISNIILVNNSPLSLYYGIAKEFKATRYHSLVVDEVHRPLIVDAISAEDNEIMAIHHEEYPIYGVQFHPESVGTSLGYKILYNFLNRV”, the “soluble on expression in E. coli” value is reported as “soluble”. For “MILVGDGEDLEPPDDFLRREVADSVLNLLGDYRFLTKGYFVSLHAEENGCEVFPPVKNALDAYRAPLFMNAVRKLGLETPEFSIRSEPKFERGVLLPLNPFSKNSAKVVKTSHQYAKAFKRLSMNRYPVVQVKSEKYDSFNLYLWRADKEEYNFIAEKIFKGLRIPLGKVLVDVTDGMAKPFYFMPVEKGEINLRLVFEVLYENCLLR”, the “soluble on expression in E. coli” value was “not soluble”. With “MRSGQMEIIIGWLYPQLMSTYGDRGNVIIIERRAQWREYNVTVLPLDQNSTPDDLKSVDVIVGGGAQDRQQEIVMRDLQGAKADAMREKIENGTPGVFTCGSPQLLGHYYEPGFGQRIEGLGILDLVSIHPGENTKRCIGNLVIEVTASRFAQELEAMTGTKPYLVGFENHGGRTKLGKVEALGRVVYGLGNNGEDGTEGAFYQNAIATYSHGPLLPKNPFVADWLIQTALRLKYQEEIQLSPLNDTLAMQGREAMFKRLKVNLPLAGRI” the “soluble on expression in E. coli” value was “not soluble”. In the case of “MGSDKIHHHHHHMELRPDLLFLDVELPDVLGLNLLSEMRDEVLWDMKVVFYTSYDKYLLQALRESAFDFLLKPFETGDLRVVIERYRKAVASIPATPSSSFSSSVSALMPQQGMFMISTVTGFKLLRLEEIGYFEYLKDKRQWQVVLFNQTRLNLKRNTKAEDIIGYSQAFIQISQSAIVNVNYLAMIDGKCCQLYPPFHDKSDLVISRSFLKGLQDRFFVL”, the “soluble on expression in E. coli” value is reported as “not soluble”. For “MGDTTFLIEFDHPAAVYSPGQNVAGKLTIRNRNALNALALKICIHGDIETLWRKFENKGRYDRHGRWYRSSEHINYTSKINVLEGIAQPWSSIENANNKIPGGVNIFPFLFQLPANLPPSFEGTHGNVRYSVHVELDRPWRMNVEAKRVFSVIPVIDLNSIPKTINPMIVSSCKHSGLFSNKEVKVKISIPKSGYIPGETIQVSALIQNHTKKPIYSIKAKLEQHVHYQAQQENSHLFPEEHCHKHCEHKTAQTTMSKVEKSCHVEFCSNSQINVPLVLPNQLVPSFRTGIIEVDYCIIVDIGENKKLRCELPITVGTIPIGVFTRPIAYSITEAPPKYENFSQIVEDSQASAPPPEYENEEHF”, the “soluble on expression in E. coli” value was “not soluble”. In the case of “MTSLSVNDRKDFVDGQMKYWRQIAESDGFDIDDVPVPRGTRAGLWSVDCKHPRFRLRACLPKIYAMVGLHRYNLLRGTNFEHLELLKYNESMNCVCSYYITSVAVDLSSQLQKTFQIRVDEKSFGDLDLTVSVARPNDEEKVTTEKRFIHHFHCEAAADDFYKGALPDWPSVGDLNNQKRFYMVKKCELQSNDWIRLYLELAVGVRYQQTSESDLSKLQVLKVAIETKEEDVQPPNRRLKSKSLHVYITFKGLAKAPIGDEIGEHVERKAIVRRVIDERSGHLTLLGGFSNAKNDLNQSSDDEQPFGKRRRI”, the “soluble on expression in E. coli” value is reported as “soluble”. In the case of “MRGPLLPPTVPGWRSRAERFDMAVLEAYEPIERRWQERVSQLDIAVDEIPRIAAKDPESVQWPPEVIADGPIALARLIPAGVDVRGNATRARIVLFRKPIERRAKDTEELGELLHEILVAQVAIYLDVDPSVIDPTIDD”, the “soluble on expression in E. coli” value is reported as “soluble”. In the case of “MVTPFPEVSEWLCIGQIVGAHGLRGEVKVKPFSDFPERFTVPGCRWLRSPRQPQPYAVTLLRGRFLPRAEQFVVTFAEISDRTAAEALKGAEILVPASDRPPLAANEYHLMDLIGLAVYHQGERVGEVVGLVNAGNDLLEVQLLDPAPKAPQSVYIPFVPAIVPVVDLAARRIEIDPPLGLLPLEHHHHHH”, the “soluble on expression in E. coli” value is reported as “not soluble”. With “MGSDKIHHHHHHMKIILTTSMSGLGGTETATVRLGRLLKRHGHDIILASSDGPFVGEAQASGIRWQPVDFYRGGLAGYLKSTFAYARMLRREQPDIIDCQMARVVPACALAAKIVSPKTKIICHSHGLDAATYPKTAKLFDKLGAYIIGNCKHEREKLIRHGFPAGRIAYAYNTPPEFHFRKTEKECAVLGTLSRLDTVRAVHLMLDILKKMVGRNIPVRLNMAGIGEEMDNLKAQAKRLGIEDKVTFLGGVRDLTGYFKEVDILVNTPHCVGDHGAGVGNNILEAGLYDTPVVTYNMAGISEMVITGQTGYCIPFGDDEAFIEAVDTLIKHPELRSQMGKALHKHVETLCSDDEIYRTTMAAYEM” the “soluble on expression in E. coli” value was “not soluble”. With “MNPFDMLSPGYQDIWLRLQSERLLLEKRISAKEGELKNLMQFVQNPPFLNFPQYMLPQGPLGAQNQ” the “soluble on expression in E. coli” value was “not soluble”. With “MNEKEKIIEYWRRRARECLDDAKLLLKNERLHSAVNRIYYALFYQVSALLLAKGLSFSKHSGVLAAFNREFVKTGKVNKELGKFYNRMFEHRKTGDYGELVEFEEENVKDWIRKAEGFLDAIEKLIEDLKRA” the “soluble on expression in E. coli” value was “not soluble”. With “MVVGDFPIETDTIVIGAGPGGYVAAIRAAQLGQKVTIVEKGNLGGVCLNVGCIPSKALLHASHRFVEAQHSENLGVIAESVSLNFQKVQEFKSSVVNKLTGGVEGLLKGNKVNIVKGEAYFVDNNSLRVMDEKSAQTYNFKNAIIATGSRPIEIPNFKFGKRVIDSTGALNLQEVPGKLVVVGGGYIGSELGTAFANFGSEVTILEGAKDILGGFEKQMTQPVKKGMKEKGVEIVTEAMAKSAEETDNGVKVTYEAKGEEKTIEADYVLVTVGRRPNTDELGLEELGVKFADRGLLEVDKQSRTSISNIYAIGDIVPGLPLAHKASYEAKVAAEAIDGQAAEVDYIGMPAVCFTEPELATVGYSEAQAKEEGLAIKASKFPYAANGRALSLDDTNGFVKLITLKEDDTLIGAQVVGTGASDIISELGLAIEAGMNAEDIALTIHAHPTLGEMTMEAAEKAIGYPIHTM” the “soluble on expression in E. coli” value was “not soluble”. In the case of “MRDKTLKAILAHAEAEHPKECCGVVAQKSRVEKYFPCENLATNPTEQFHLDPTGYVEAEDWGTITAIVHSHPDATTQPSELDMAQCDNNELPWHIVSWPEGDLRTIQPRGDLPLVGREFVLGHTDCWGLIMSYFRQTHDIELKDYRVDRHWWESGTENFYMDNWYECGFREFSGPAQPGDLIIMQVSAPVANHGGILLEDGMLLHHPYGQLSQRVPYGGYWQERTMKVVRYEISQL”, the “soluble on expression in E. coli” value is reported as “not soluble”. In the case of “MVGIQVQEVMTDKYAKIDISAPLSEAIGIIEKEDPDLILVFDDNVYKGVLTQDLIIRSHLKWDPTKAKVRDIYKPAPVVKPTDDLSHAAKLLLETDLRSLPVGENKAEIIGVISDIALLERVVAEEFGKKKVEEFMTKDVITLTPDDTVAKALAVMRDHGISRIPIVNEEGKLEGLVTLHDLILRFIKPRFKAQTGELVGEKIPPFSMKLREAMIRGVITILPTATVREAVATMKDNDIDGLVVVDEGNKVVGILTVKDLLLPISRMVEKEAKFYLQLGGDASALSDFTRERIINDIKKFVDGYSDLLGNEGIIYLYIRRFNEKFRGVHLYQARMRIVTDKGVFIARGETWGAIQAVHDAIRAIERQLLQKAELERDIRYAKRFIEKLELWR”, the “soluble on expression in E. coli” value is reported as “soluble”. For “MASVAAARAVPVGSGLRGLQRTLPLVVILGATGTGKSTLALQLGQRLGGEIVSADSMQVYEGLDIITNKVSAQEQRICRHHMISFVDPLVTNYTVVDFRNRATALIEDIFARDKIPIVVGGTNYYIESLLWKVLVNTKPQEMGTEKVIDRKVELEKEDGLVLHKRLSQVDPEMAAKLHPHDKRKVARSLQVFEETGISHSEFLHRQHTEEGGGPLGGPLKFSNPCILWLHADQAVLDERLDKRVDDMLAAGLLEELRDFHRRYNQKNVSENSQDYQHGIFQSIGFKEFHEYLITEGKCTLETSNQLLKKGIEALKQVTKRYARKQNRWVKNRFLSRPGPIVPPVYGLEVSDVSKWEESVLEPALEIVQSFIQGHKPTATPIKMPYNEAENKRSYHLCDLCDRIIIGDREWAAHIKSKSHLNQLKKRRRLDSDAVNTIESQSVSPDHNKEPKEKGSPGQNDQELKCSV”, the “soluble on expression in E. coli” value was “soluble”. With “MGSDKIHHHHHHMSIVDKFGEKVGEIAENDPVKARKLLLAGYRLQEKRLALFPDRKLPMSGQYVAKIVMNNIIQALAKPENAAMVSIFVPGELLTAAGLTPYSVEALSCFIAGTKCEQAFLRQTEKEGFPETMCSYHRVFLGAALNGIVPKPKCMVYTNLACDGNMMTFPYLKERYEIPSFYIDVPYEKNYDSVMYVAKQLRELKSFLQDVTGREITEESVKKAVDKSKIASNNYYRQLHLRKGHDIASTLTNELYALFMCHLLAGTDESVRYTQLLRDDVRRAPAGDGFHVLWMHTMPFLQDAVKDVFNYSDTIHISASDFIADGFRSMESDDPYEALAEKMVYCIYNGSVNQRIDEAKELADTVGADGAVLFAHWGCKNTIGASSLIKRSLEREGLPTMVLDGDGCNPANASDGQISTRLQAFVEMLTEQERN” the “soluble on expression in E. coli” value was “not soluble”. With “MSLEGDRGQDDVLRILVATDTHLGYKADDSERGGDSFETFQEILEIGRNLKVDFLLHGGDLFDENRPSRATLYRTFCLLRKFCFGDGAVSFEVLEGAAESRGRGEGFRFGLNYLDENINVCMPIFAMHGNHDDPGEQSHLSPLDLLEAAHLINYFGRCDATDEVTIKPILIKKGQTKVAIYGVGWIRDARLHRAFNNGKVRFLVPSASAGEDSVDDWFNIMVVHQNMYKGAFGGQPAKNCIHEQMLPDFLDLAIWGHEHDCHLDLRDAPQGTFRVLQPGSSIATSLVAGEALPKHVFLLEIRGENYRVTPQRLRTVRPLLFEDVALSDLLHSRPPLAPALSGVRTPQSRVSNSGAGRNLQTAQPAEDRDVWQLLTDAVEELLSRFAREEGHHHHHH” the “soluble on expression in E. coli” value was “soluble”. With “MSHQIRSKKTLWELVGRNKDALRDFLKEHRGTILLRDIASEHKVVYKPIFKRYNGDPDLIEDNSNDVEHWYDYHLERYWNTPELKKEFYKKFGPVDLNQPIILAKPLRQHNRGDLVHLLPQFVVPVYN” the “soluble on expression in E. coli” value was “soluble”. In the case of “MGSDKIHHHHHHMASESNQVIQRLFQRFFRDELAGLSPADRAAFESEFEGRYGELLDRSSSATTTSFADLVGFGDGPIKPFDSLQMPLLRNDFDESIIPPQLQASAELYYIYQMDRMKLFQVVDVLRRLFQNGQIRIQRGPGARGLYILEKWRPIRYKRRDRLIAYRRVFNYGRAPVPAGAIVNRSFHFQLVAFMNAMSQYFQDLTIGQVIRGSSTINDRPFAALATVQRVGTDLRYHLDRSSYGNILALTRETGQYVQQIFELFDAPDIKKSFDANTKWDVIEAVANRHLGGATEMSERAKMADAGRRILQYIAENDFRTTITPAEFDADAKKMGAQADAWLAAYRLTREGRRFPGLDGDRVHWSYGLNRNTASRIAA”, the “soluble on expression in E. coli” value is reported as “not soluble”. For “MNIFEAIENRHSVRDFLERKMPERVKDDIENLLVKFITKKLDWKINLSSFPSYIYAKAEKHFDELVEYGFQGEQIVLFLTAQGFGTCWMARSPHPDVPYIIVFGYPRTRNFTRKRRPITSFLENDLEELPPEIVKIVEMTILAPSALNRQPWKIKYTGGELCISSERPVDLGIALSHAYLTAREIFKREPVIQKRGEDTYCLILNP”, the “soluble on expression in E. coli” value was “not soluble”.
